# Assay results as given in patent publication US20240182536A1.
# T1: mouse IL-18 receptors on PathHunter U2OS mIL18-NF-kb reporter cells (mouse) (UniProt Q61098)
# T1 sequence (looked up) 1: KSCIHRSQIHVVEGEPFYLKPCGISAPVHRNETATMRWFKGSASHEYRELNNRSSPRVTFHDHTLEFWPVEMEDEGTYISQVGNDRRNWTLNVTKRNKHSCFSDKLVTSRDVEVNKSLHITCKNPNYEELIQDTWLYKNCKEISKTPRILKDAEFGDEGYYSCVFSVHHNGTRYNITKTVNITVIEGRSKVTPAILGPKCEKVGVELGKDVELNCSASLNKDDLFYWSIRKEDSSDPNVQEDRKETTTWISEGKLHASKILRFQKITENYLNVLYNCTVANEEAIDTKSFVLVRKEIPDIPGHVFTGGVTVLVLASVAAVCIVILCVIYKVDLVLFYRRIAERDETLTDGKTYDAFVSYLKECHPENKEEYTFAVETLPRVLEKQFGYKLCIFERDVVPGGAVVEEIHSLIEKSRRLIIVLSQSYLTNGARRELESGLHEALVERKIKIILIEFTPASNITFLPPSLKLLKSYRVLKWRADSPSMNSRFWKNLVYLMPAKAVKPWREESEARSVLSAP
# T1 sequence (looked up) 2: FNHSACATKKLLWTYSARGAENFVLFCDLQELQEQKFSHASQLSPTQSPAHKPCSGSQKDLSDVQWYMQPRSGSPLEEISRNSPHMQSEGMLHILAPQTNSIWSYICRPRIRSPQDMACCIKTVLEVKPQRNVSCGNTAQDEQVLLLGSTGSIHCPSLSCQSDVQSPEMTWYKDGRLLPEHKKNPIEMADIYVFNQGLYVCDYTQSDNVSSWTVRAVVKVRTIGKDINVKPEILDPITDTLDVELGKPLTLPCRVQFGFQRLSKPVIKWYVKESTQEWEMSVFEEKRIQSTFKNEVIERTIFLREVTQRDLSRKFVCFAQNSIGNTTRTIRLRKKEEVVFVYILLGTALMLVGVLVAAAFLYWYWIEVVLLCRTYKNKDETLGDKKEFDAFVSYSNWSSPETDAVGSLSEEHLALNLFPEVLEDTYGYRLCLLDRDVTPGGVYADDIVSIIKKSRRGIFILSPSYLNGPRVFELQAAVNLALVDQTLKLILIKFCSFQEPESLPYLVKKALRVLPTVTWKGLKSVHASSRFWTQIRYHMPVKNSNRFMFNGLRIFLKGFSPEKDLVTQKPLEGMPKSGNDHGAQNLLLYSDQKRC
# T2: mouse IL-18 binding protein (mouse) (UniProt Q9Z0M9)
# T2 sequence (looked up): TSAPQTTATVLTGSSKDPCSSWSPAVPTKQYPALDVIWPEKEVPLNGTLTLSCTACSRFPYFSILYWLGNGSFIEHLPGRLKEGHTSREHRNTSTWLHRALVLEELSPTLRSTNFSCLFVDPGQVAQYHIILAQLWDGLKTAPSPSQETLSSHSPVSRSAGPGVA
# B1: WT mouse IL-18 (ligand, UniProt P70380 36-192, looked up)
# chain: NFGRLHCTTAVIRNINDQVLFVDKRQPVFEDMTDIDQSASEPQTRLIIYMYKDSEVRGLAVTLSVKDSKMSTLSCKNKIISFEEMDPPENIDDIQSDLIFFQKRVPGHNKMEFESSLYEGHFLACQKEDDAFKLILKKKDENGDKSVMFTLTNLHQS
# Columns and labels:
# [1] = molecular target: T1, mouse IL-18 receptors on PathHunter U2OS mIL18-NF-kb reporter cells (mouse); assay: cell-based or functional assay
# [2] = molecular target: T2, mouse IL-18 binding protein (mouse); assay: cell-based or functional assay
binder,measurement,setting,value
B1,"mouse IL-18 reporter assay EC50, without mouse IL-18BP",[1],0.61 pM
same,"mouse IL-18 reporter assay EC50, +Mouse IL-18BP 50 nM",[2],> 500 pM
